Experimental findings from PMC4492089, “FOXM1 binds directly to non-consensus sequences in the human genome” are described below.

Conditions in all cases: protein: recombinant; tags: GST; label: 5' 6FAM on top strand; blunt
Data set [1] deals with T1, FOXM1B DBD WT (GST fusion) (UniProt Q08050-2 235-327).
T1 sequence: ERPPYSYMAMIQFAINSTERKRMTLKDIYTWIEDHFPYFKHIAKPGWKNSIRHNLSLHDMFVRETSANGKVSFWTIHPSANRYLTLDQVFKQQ
Put plainly: fluorescence polarization; FP: 50 mM Tris-HCl pH 7.5, 5 mM MgCl2, 1 mM DTT, 2% glycerol; protein 80 nM-5 uM; temperature not stated. On the technique in general: Fluorescence polarisation rises when a labelled molecule tumbles more slowly, as on binding a larger partner.

In data set [2] the target is T1, FOXM1B DBD WT (GST fusion). The experiment in a line: EMSA; FP: 50 mM Tris-HCl pH 7.5, 5 mM MgCl2, 1 mM DTT, 2% glycerol; protein 80 nM-5 uM; temperature not stated. On the technique in general: A gel shift assay detects complexes by their altered migration in electrophoresis.
The target of data set [3] is T2, FOXM1 DBD WT (GST fusion) (UniProt Q08050 235-327).
T2 sequence: T1 sequence with Q92P, Q93L
Put plainly: fluorescence polarization; FP: 50 mM Tris-HCl pH 7.5, 5 mM MgCl2, 1 mM DTT, 2% glycerol; protein 80 nM-5 uM; temperature not stated.

For the next data set, the target named is T3, FOXM1 DBD H287A (UniProt Q08050 235-327, H287A).
T3 sequence: T1 sequence with H53A, Q92P, Q93L
The data set is described as above.

A further data set concerns the target T4, FOXM1 DBD S290A (UniProt Q08050 235-327, S290A).
T4 sequence: T1 sequence with S56A, Q92P, Q93L
Put plainly: fluorescence polarization; up to 5 uM protein; FP: 50 mM Tris-HCl pH 7.5, 5 mM MgCl2, 1 mM DTT, 2% glycerol; protein 80 nM-5 uM; temperature not stated.

The target in the next data set is T5, FOXM1 DBD R286A (UniProt Q08050 235-327, R286A).
T5 sequence: T1 sequence with R52A, Q92P, Q93L
Described as above.

Positions count from the first letter of the chain named.

B1: CCNB2 16-mer (dsDNA)
DNA 1: ACGCGGTATTTGAATC
DNA 2: GATTCAAATACCGCGT
In the case of B1, the Kd in data set [1] stood at 436 ± 147 nM.

B2: MYC P2 TATA box 16-mer (dsDNA)
DNA 1: TGAGTATAAAAGCCGG
DNA 2: CCGGCTTTTATACTCA
With B2, the Kd in data set [1] came out at 177 ± 79 nM.

B3: HP1BP3 16-mer (dsDNA)
DNA 1: CCTCAGCCAATCGGGG
DNA 2: CCCCGATTGGCTGAGG
Consider B3, for which the Kd in data set [1] worked out at 489 ± 233 nM.

B4: FKH consensus 16-mer (dsDNA)
DNA 1: AAACAAACAAACAATC
DNA 2: GATTGTTTGTTTGTTT
Consider B4, for which the Kd turned out to be 346 ± 24 nM in data set [2], 224 ± 45 nM in data set [1], 1100 ± 20 nM in data set [3] and 3040 ± 100 nM with FOXM1 DBD H287A. Also, the binding result with FOXM1 DBD S290A and with FOXM1 DBD R286A was “no binding” each time.

As a reminder, the Kd is a measure of binding affinity in units of concentration.
